Laboratory results from publication PMC10611554, “AcbHLH144 transcription factor negatively regulates phenolic biosynthesis to modulate pineapple internal browning”.

Biological target: T1, GST-AcbHLH144 (pineapple, UniProt A0A6P5FRB5 1-240)
T1 sequence: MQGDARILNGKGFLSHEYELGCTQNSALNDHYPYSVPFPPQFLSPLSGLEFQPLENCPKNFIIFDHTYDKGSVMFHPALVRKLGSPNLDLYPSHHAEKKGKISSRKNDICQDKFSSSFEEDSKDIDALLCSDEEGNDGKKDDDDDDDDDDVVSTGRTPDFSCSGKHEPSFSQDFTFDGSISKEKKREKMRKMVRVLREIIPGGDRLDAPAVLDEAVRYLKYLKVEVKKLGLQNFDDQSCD
Assay: EMSA; Chemiluminescent EMSA Kit (Beyotime); buffer, salt, pH and temperature not stated
Conditions: protein: recombinant; tags: N-terminal GST (pGEX-4T-1); chain copies: 2; label: biotin; blunt

B1: Ac4CL5 promoter N-box probe (dsDNA)
DNA 1: CGGAGCACCTGCCCCTGCACGAGTACTGCTTCGAGCAGCT
DNA 2: AGCTGCTCGAAGCAGTACTCGTGCAGGGGCAGGTGCTCCG
binding result: binds
